According to article PMC9352680, “A comprehensive thermodynamic model for RNA binding by the Saccharomyces cerevisiae Pumilio protein PUF4”:

T1: PUF4 RNA-binding domain (Saccharomyces cerevisiae, UniProt P25339 537-888)
T1 sequence: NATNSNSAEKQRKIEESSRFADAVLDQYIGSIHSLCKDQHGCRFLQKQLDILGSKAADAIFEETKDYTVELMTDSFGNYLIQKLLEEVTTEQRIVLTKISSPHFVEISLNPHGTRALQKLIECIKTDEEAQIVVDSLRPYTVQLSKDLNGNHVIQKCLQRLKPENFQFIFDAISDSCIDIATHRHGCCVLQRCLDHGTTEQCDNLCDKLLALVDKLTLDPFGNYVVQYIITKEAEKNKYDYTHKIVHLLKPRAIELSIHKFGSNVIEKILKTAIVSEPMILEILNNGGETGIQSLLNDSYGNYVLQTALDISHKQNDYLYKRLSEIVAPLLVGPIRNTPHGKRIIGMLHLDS

B1: Ie_S1_P3E.2_K3.1_C3.2_[+-1CCCT]_H3.1_A3.1_F3.1_T3.2 (ssRNA)
RNA: UCUCUUCUCCCUUGUAUAUAUAUCUCUU
B2: Ie_S1_P3E.2_K3.1_C3.2_[+-2TCTCT]_H3.1_A3.1_F3.1_T3.2 (ssRNA)
RNA: UCUCUUCUCUCUUUGUAUAUAUAUCUCUU
B3: Ie_S1_P3E.2_K3.1_C3.2_[+-2CTCTC]_H3.1_A3.1_F3.1_T3.2 (ssRNA)
RNA: UCUCUUCCUCUCUUGUAUAUAUAUCUCUU
B4: Ie_S1_P3E.2_K3.1_C3.2_H3.1_[+1CCTC]_A3.1_F3.1_T3.2 (ssRNA)
RNA: UCUCUUCUUCCUCGUAUAUAUAUCUCUU
B5: Ib_S1_P5E.1_K5.1_C5.1_H5.1_A5.1_[T5A]_[A7C]_F5.1_T5.1 (ssRNA)
RNA: UCUCUUUGUAAUCUUAUCUCUU
B6: Ie_S1_P3E.2_K3.1_C3.2_[+-1CCTCT]_H3.1_A3.1_F3.1_T3.2 (ssRNA)
RNA: UCUCUUCUCCUCUUGUAUAUAUAUCUCUU
B7: Ie_S1_P3E.2_K3.1_C3.2_[+-1CC]_H3.1_A3.1_F3.1_T3.2 (ssRNA)
RNA: UCUCUUCUCCUGUAUAUAUAUCUCUU
B8: Ie_S1_P3E.2_K3.1_C3.2_H3.1_[+1CTC]_A3.1_F3.1_T3.2 (ssRNA)
RNA: UCUCUUCUUCUCGUAUAUAUAUCUCUU
B9: Ib_S1_P5E.1_K5.1_C5.1_H5.1_A5.1_[T5A]_[A7G]_F5.1_T5.1 (ssRNA)
RNA: UCUCUUUGUAAUGUUAUCUCUU
B10: Ie_S1_P3E.2_K3.1_C3.2_[+-1CTC]_H3.1_A3.1_F3.1_T3.2 (ssRNA)
RNA: UCUCUUCUCUCUGUAUAUAUAUCUCUU
B11: Ie_S1_P3E.2_K3.1_C3.2_H3.1_[+1TCC]_A3.1_F3.1_T3.2 (ssRNA)
RNA: UCUCUUCUUUCCGUAUAUAUAUCUCUU
B12: Ie_S1_P3E.2_K3.1_C3.2_[+-1CTCTC]_H3.1_A3.1_F3.1_T3.2 (ssRNA)
RNA: UCUCUUCUCUCUCUGUAUAUAUAUCUCUU
B13: Ie_S1_P3E.2_K3.1_C3.2_H3.1_[+1TCT]_A3.1_F3.1_T3.2 (ssRNA)
RNA: UCUCUUCUUUCUGUAUAUAUAUCUCUU
B14: Ie_S1_P3E.2_K3.1_C3.2_[+-2CCCTT]_H3.1_A3.1_F3.1_T3.2 (ssRNA)
RNA: UCUCUUCCCCUUUUGUAUAUAUAUCUCUU
B15: Ie_S1_P3E.2_K3.1_C3.2_H3.1_[+1CT]_A3.1_F3.1_T3.2 (ssRNA)
RNA: UCUCUUCUUCUGUAUAUAUAUCUCUU
B16: Ie_S1_P3E.2_K3.1_C3.2_[+-1TCTCT]_H3.1_A3.1_F3.1_T3.2 (ssRNA)
RNA: UCUCUUCUUCUCUUGUAUAUAUAUCUCUU
B17: Ie_S1_P3E.2_K3.1_C3.2_H3.1_[+1CTCT]_A3.1_F3.1_T3.2 (ssRNA)
RNA: UCUCUUCUUCUCUGUAUAUAUAUCUCUU
B18: Ie_S1_P3E.2_K3.1_C3.2_[+-1CCCTT]_H3.1_A3.1_F3.1_T3.2 (ssRNA)
RNA: UCUCUUCUCCCUUUGUAUAUAUAUCUCUU
B19: Ie_S1_P3E.2_K3.1_C3.2_[+-1TTCCT]_H3.1_A3.1_F3.1_T3.2 (ssRNA)
RNA: UCUCUUCUUUCCUUGUAUAUAUAUCUCUU
B20: Ie_S1_P3E.2_K3.1_C3.2_[+-2TTCCT]_H3.1_A3.1_F3.1_T3.2 (ssRNA)
RNA: UCUCUUCUUCCUUUGUAUAUAUAUCUCUU
B21: Ie_S1_P3E.2_K3.1_C3.2_H3.1_[+1CCT]_A3.1_F3.1_T3.2 (ssRNA)
RNA: UCUCUUCUUCCUGUAUAUAUAUCUCUU
B22: Ie_S1_P3E.2_K3.1_C3.2_[+-2CCCT]_H3.1_A3.1_F3.1_T3.2 (ssRNA)
RNA: UCUCUUCCCCUUUGUAUAUAUAUCUCUU
B23: Ie_S1_P3E.2_K3.1_C3.2_H3.1_[+1CC]_A3.1_F3.1_T3.2 (ssRNA)
RNA: UCUCUUCUUCCGUAUAUAUAUCUCUU
B24: Ie_S1_P3E.2_K3.1_C3.2_H3.1_[+1TCTC]_A3.1_F3.1_T3.2 (ssRNA)
RNA: UCUCUUCUUUCUCGUAUAUAUAUCUCUU
B25: Ie_S1_P3E.2_K3.1_C3.2_[+-2TTCC]_H3.1_A3.1_F3.1_T3.2 (ssRNA)
RNA: UCUCUUCUUCCUUGUAUAUAUAUCUCUU
B26: Ie_S1_P3E.2_K3.1_C3.2_[+-2CCTC]_H3.1_A3.1_F3.1_T3.2 (ssRNA)
RNA: UCUCUUCCCUCUUGUAUAUAUAUCUCUU

target: T1, PUF4 RNA-binding domain; assay: Mg; RNA-MaP; 20 mM Na-HEPES pH 7.4, 30 mM KOAc, 0.75 mM MgCl2, 0.1% Tween-20, 5% glycerol, 0.1 mg/mL BSA, 2 mM DTT; 25 C; 0.0125-409.6 nM protein; conditions: tags: N-His6-TEV cleaved; C-SNAP kept, Cy3B-labelled; label: tethered on chip by stalled RNA polymerase

| Binder | Kd |
| --- | --- |
| B1 | 2.61 nM |
| B2 | 4.28 nM |
| B3 | 7.46 nM |
| B4 | 475 nM |
| B5 | 12.1 nM |
| B6 | 3.91 nM |
| B7 | 4.99 nM |
| B8 | 449 nM |
| B9 | 12.7 nM |
| B10 | 4.2 nM |
| B11 | 534 nM |
| B12 | 3.89 nM |
| B13 | 3.95 nM |
| B14 | 5.86 nM |
| B15 | 4.75 nM |
| B16 | 5.94 nM |
| B17 | 4.16 nM |
| B18 | 6.24 nM |
| B19 | 4.2 nM |
| B20 | 6.01 nM |
| B21 | 5.41 nM |
| B22 | 3.73 nM |
| B23 | 1270 nM |
| B24 | 261 nM |
| B25 | 6.09 nM |
| B26 | 7.14 nM |
